Experimental data published in article doi:10.1101/2022.01.25.477770 (bioRxiv, 2022).

Legend:
Assay in all cases: ELISA
Settings in all cases: both partners purified
[1] = biological target: T1, MERS-CoV prefusion-stabilized spike (S2P) (MERS-CoV EMC/2012 (GenBank AFS88936), UniProt K0BRG7, stabilised)
T1 construct: also called MERS-CoV S2P

[2] = biological target: T2, RaTG13 prefusion-stabilized spike (S2P) (Bat coronavirus RaTG13 (GenBank …, UniProt A0ABF7PLN6, stabilised))
T2 construct: also called RaTG13 S2P

[3] = biological target: T3, WIV1 prefusion-stabilized spike (S2P) (Bat SARS-like coronavirus WIV1 …, UniProt U5WI05, stabilised)
T3 construct: also called WIV1 S2P

[4] = biological target: T4, SHC014 prefusion-stabilized spike (S2P) (Bat SARS-like coronavirus RsSHC014 …, UniProt U5WLK5, stabilised)
T4 construct: also called SHC014 S2P

[5] = biological target: T5, SARS-CoV prefusion-stabilized spike (S2P) (SARS-CoV Urbani (AAP13441.1), UniProt P59594, stabilised)
T5 construct: also called SARS-CoV S2P

Measured: binding result

B1: antibody WS6 (IgG) (antibody, V domains shown)
VH: EVQFQQSGTVLARPGASVKMSCKASGYTFTNYWIHWVKQRPGQGLEYIGGTYPGNGDTTYNQKFKGKAKVTAVTPTSTAYMDLSSLTNEDSAVYYCTRTGSYFDYWGQGTTLTVSS
VL: QIVLTQSPAIMSASPGEKVTISCSATSSVSYIYWYQQRPGSSPKPWIYRTSNLASGVPVRFSGSGSGTSYSLTISNMEAEDAATYYCQQYQSYPPTFGAGTKLELK
notes: also called mAb WS6
binds: all assays above
